According to patent CN101357942A:

Assays:
[1] = target: 天然Stx2 (natural Shiga toxin II of enterohaemorrhagic E. coli O157:H7) (肠出血性大肠杆菌(EHEC) O157:H7) (UniProt P09385); assay: cell-based or functional assay
[2] = target: 天然Stx2 (natural Shiga toxin II of enterohaemorrhagic E. coli O157:H7) (肠出血性大肠杆菌(EHEC) O157:H7) (UniProt P09385)

Sequence of UniProt P09385 (P09385 23-319, chain 1 of 2): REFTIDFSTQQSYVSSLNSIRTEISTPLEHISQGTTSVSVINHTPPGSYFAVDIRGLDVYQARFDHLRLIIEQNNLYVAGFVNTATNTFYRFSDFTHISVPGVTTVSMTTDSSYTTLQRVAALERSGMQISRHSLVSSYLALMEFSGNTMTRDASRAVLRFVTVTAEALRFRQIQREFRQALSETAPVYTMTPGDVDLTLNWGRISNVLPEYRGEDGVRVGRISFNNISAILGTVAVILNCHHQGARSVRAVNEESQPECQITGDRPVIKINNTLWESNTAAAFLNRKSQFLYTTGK
Sequence of UniProt P09385 (P09386 20-89, chain 2 of 2, further chain): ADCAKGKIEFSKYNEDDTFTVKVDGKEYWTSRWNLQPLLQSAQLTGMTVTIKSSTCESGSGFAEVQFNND

B1: 1F2Fab抗体 (recombinant Fab of 1F2, expressed from Pcomb3X-1F2Fab in E. coli XL-blue) (Fab, V domains shown)
VH: SGGGLVQPGGSLKLSCAASGFTFSVYGMSWVRQTPDKRLELVATINNNGGSTYYPDSVKGRFTISRDNAKNTLYLQMSSLKSEDTAMYYCASIPLFGNYWGQGTSVTVSS
VL: MTQTPLSLPVSLGDQASISCRSSQSIVHSNGNTYLEWYLQKPGQSPKFLIYKVSRFSGVPDRFSGSGSGTDFTLKISRVEAEDLGVYYCFQGSHVPWTFGGGTKLEIKR
- 对Stx2细胞毒作用的抑制率 (Vero cells, MTT) [1]: 83%
- affinity relative to parental mAb 1F2 [2]: 85%
